Patent US20240358834A1 (University of Pennsylvania, published 2024)
Positions count from the first letter of the chain named.

Target: T1, human CD19 protein with a biotinylated AviTag (Acrobiosystems) (human, UniProt P15391 20-291, biotinylated AviTag)
T1 construct: Captured on streptavidin-coated microplate wells; also called biotinylated-AviTag-CD19; hCD19; not shown: AviTag
T1 sequence (looked up): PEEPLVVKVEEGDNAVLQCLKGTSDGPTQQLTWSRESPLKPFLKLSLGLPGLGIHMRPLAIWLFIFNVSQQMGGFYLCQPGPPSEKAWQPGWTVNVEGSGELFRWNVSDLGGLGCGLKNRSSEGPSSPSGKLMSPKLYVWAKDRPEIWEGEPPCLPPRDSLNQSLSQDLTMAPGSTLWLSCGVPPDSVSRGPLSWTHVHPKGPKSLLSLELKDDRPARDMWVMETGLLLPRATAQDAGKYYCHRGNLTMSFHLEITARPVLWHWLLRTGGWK
Test: phage ELISA, biotinylated AviTag CD19 on streptavidin wells; signal ratio to FMC63 standard
Description: To identify unique human CD19-binding monoclonal scFv from the panned libraries, individual phage antibody clones were expanded, assessed for binding to CD19 by ELISA, and subjected to nucleotide sequencing to identify those clones that were unique. A total of 84 scFvs were randomly selected from the panned libraries (70 from P3 and 14 from P4).

B1: scFv 33 (scFv)
scFv: DIVMTQTPLSLSVSPGEPASISCKASQSLLHSDGNTYLHWYLQKPGQSPQLLIYSVSNRFTGVSDRFSGSGSGTDFTLRISRVEADDTGVYYCGQGTHLPFTFGQGTKLEIKGGSSRSSSSGGGGSGGGGEVQLVESGGDLVKPGGSLRLSCAASGFTFSHYDMNWVRQAPGKGLQWVASIAYDGSNTYYTDAVKGRFTISRDNAKNILFLLVNSLRAEDTAIYYCARGLVYWGQGTLVTVSSASTTAPSVTSGQAGQHHHHHHGAYPYDVPDYAS
notes: Canine scFv (VL-linker-VH); also called P3-07
ELISA hCD19 (ratio FMC63): 0.43 ratio to FMC63

B2: scFv 28 (scFv)
scFv: QSALTQPSSVSVSLGQTATISCSGESLNKYYVQWFQQKAGQVPILVIYRDTERPSGIPDRFSGSSSGNTHTLTITGTRAEDEADYYCESLVNDNTYVFGSGTQLTVLGGGSSRSSSSGGGGSGGGGEVQLVETGGDLVKPGGSLRLSCVGSGFTFSSYWMSWVRQAPGKGLQWIADISDSGSSTDYADAVKGRFTISRDNAKNTLYLQMNSLRAEDTAMYYCARGLGMDYWGHGTSLFVSSASTTAPSVTSGQAGQHHHHHHGAYPYDVPDYAS
notes: Canine scFv (VL-linker-VH); also called P3-30
ELISA hCD19 (ratio FMC63): 0.33 ratio to FMC63

B3: scFv 38 (scFv)
scFv: SSVLTQPPSVSVSLGQTATISCSGESLSEYYAQWFQQKAGQAPVLVIYKDTERPSGIPDRFSGSSSGNTHTLTISGARAEDEADYYCASADSSAIPVFGGGTHLTVLGGGSSRSSSSGGGGSGGGGEVQLVESGGDLVKPGGSLRLSCVASGFNFGNYAVSWVRQAPGKGLQWVAGISNDGTITGYTDVVEGRFIISRDNAKNTLYLQMNSLRAEDMAIYYCVAGGFLDYWGQGTLVTVSSASTTAPSVTSGQAGQHHHHHHGAYPYDVPDYAS
notes: Canine scFv (VL-linker-VH); also called P3-17
ELISA hCD19 (ratio FMC63): 0.64 ratio to FMC63

B4: scFv 26 (scFv)
scFv: SSVLTQPPSVSVSLGQTATISCSGESLSKYYTQWFQQKAGQAPILVIYKDTERPSGIPDRFSGSSSGNTHTLTISGARAEDEADYYCESLVDSDAYMFGSGTQLTVLGGGSSRSSSSGGGGSGGGGEVQLVETGGDLVKPGGSLRLSCVGSGFTFSSYWMSWVRQAPGKGLQWIADISDSGSSTDYADAVKGRFTISRDNAKNTLYLQMNSLRAEDTAMYYCARGLGMDYWGHGTSLFVSSASTTAPSVTSGQAGQHHHHHHGAYPYDVPDYAS
notes: Canine scFv (VL-linker-VH); also called P3-03
ELISA hCD19 (ratio FMC63): 0.65 ratio to FMC63

B5: scFv 41 (scFv)
scFv: QPVLTQPPSVSVSLGQTATISCSGESLSKYYAQWFQQKAGQAPVLVIYKDTERPSGIPDRFSGSSSGNTHTLTISGARAEDEADYYCESAVSTETVVFGGGTHLTVLGGGSSRSSSSGGGGSGGGGEVQLVETGGDLVMPAGSLRLSCVASGFTFSSSVMSWVRQAPGKGLEWVAGINGGGSFAAYGDAVKGRFTISRDNAKNTLYLQMNSLRAEDTAMYYCVGGGYMDFWGPGTSLFVSSESPSPPNLTSGQAGQHHHHHHGAYPYDVPDYAS
notes: Canine scFv (VL-linker-VH); also called P3-08A; P3-08B
ELISA hCD19 (ratio FMC63): 0.47 ratio to FMC63

B6: scFv 3 (scFv)
scFv: QSVLNQPPSVSGALGQTVTISCSGSHTNIGSGFDVQWYQQLPGKSPQTLVYANINRPSGVPARFSGSKSGSTATLTITGVQAEDEADYYCQSYDDNFDGHVFGSGTQLTVLGGGSSRSSSSGGGGSGGGGEVQLVQSGGDLVKPGGSLRLSCVASGFTFSNYTMSWVRQAPGQGLQWVAYINYDGSITYYAEAVKGRFTVSRDNAKNTLYLQMNSLRAEDTAVYFCVKETFMIPTEWGQGTLITVSSASTTAPSVTSGQAGQHHHHHHGAYPYDVPDYAS
notes: Canine scFv (VL-linker-VH); also called scFv_03; P3-05
ELISA hCD19 (ratio FMC63): 0.32 ratio to FMC63

B7: scFv 35 (scFv)
scFv: SSVLTQPPSVSVSLGQTATISCSGESLSEYYAQWFQQKAGQAPVLVIYKDTERASGIPDRFSGSSSGNTHTLTISGARAEDEADYYCESAVNSDGIVFGGGTHLTVLGGGSSRSSSSGGGGSGGGGEVQLVESGGDLVKPAGSLRLSCVTSGFTFSSYAMSWVRQAPGKGLQWVGSINSGGSTTSYADAVKGRFTISRDNAKNTVYLQMNSLRAEDTAVYYCARWWDFEYWGQGTLVTVSSESPSPPNLTSGQAGQHHHHHHGAYPYDVPDYAS
notes: Canine scFv (VL-linker-VH); also called P4-08
ELISA hCD19 (ratio FMC63): 0.23 ratio to FMC63

B8: scFv 31 (scFv)
scFv: QSALTQPSSVSVSLGQTATISCSGESLTKYYVQWFQQKAGQAPVLVIYRDTERPSGIPDRFSGSSSGNTHTLTISGARAEDEADYYCESMDGREAYVFGSGTQLTVLGGGSSRSSSSGGGGSGGGGEVQLVESGGDLVKPGGSLRLSCVASGFTFSSYWMSWVRQAPGKGLQWIADISDSGSSTDYADAVKGRFTISRDNAKNTLYLQMNSLRAEDTAMYYCARGLGMDYWGHGTSLFVSSASTTAPSVTSGQAGQHHHHHHGAYPYDVPDYAS
notes: Canine scFv (VL-linker-VH); also called P4-09
ELISA hCD19 (ratio FMC63): 0.35 ratio to FMC63

B9: scFv 6 (scFv)
scFv: QPVLTQPPSVSGSLGQRVTISCTGTNTNIGSGYSVQWYQQLPGESPKPIIYGSSNRPSGVPARFSGSKSGSTGTLTITGIQAEDEADYHCQSYDDSLDGHAVFGGGTQLTILGGGSSRSSSSGGGGSGGGGEVQLVQSGGDLVKPGGSLRLSCVASGFTFSDNYMSWIRQVPGKGLQWVSRISTDGRGTSYADAVKGRFTISRDNAKNTLYLQMNSLRDEDTAVYYCARRSGIWGFDYWGQGALVTVSSESPSPPNLTSGQAGQHHHHHHGAYPYDVPDYAS
notes: Canine scFv (VL-linker-VH); also called scFv_06; P3-28
ELISA hCD19 (ratio FMC63): 0.47 ratio to FMC63

B10: scFv 34 (scFv)
scFv: B9 scFv with Q1S, P2Y, V3E, G12A, S13A, Q137E, F158L, A243T
notes: Canine scFv (VL-linker-VH); also called P3-44
ELISA hCD19 (ratio FMC63): 0.73 ratio to FMC63

B11: scFv 29 (scFv)
scFv: QSVLNQPPSVSVSLGQTATISCSGESLNKYYTQWFQQKAGQAPVLVIYKDTERPSGIPDRFSGSSSGNTHTLTISGARAEDEADYYCESVDSTDTYVFGSGTQLTILGGGSSRSSSSGGGGSGGGGEVHLVESGGDLVKPGGSLRLSCVGSGFTFSSYWMSWVRQAPGKGLQWIADISDSGSSTDYADAVKGRFTISRDNAKNTLYLQMNSLRAEDTAMYYCARGLGMDYWGHGTSLFVSSASTTAPSVTSGQAGQHHHHHHGAYPYDVPDYAS
notes: Canine scFv (VL-linker-VH); also called P3-51
ELISA hCD19 (ratio FMC63): 0.83 ratio to FMC63

B12: scFv 39 (scFv)
scFv: QSVLTQPPSVSGSPGQRVTISCSGTTKNIGIVGASWYQQLPGKAPKLLVHSDGFRPSGVPDRFSASNSGDSDILTITGLQAEDEADYYCQSFDTTLDAHVFGSGTQLTVLGGGSSRSSSSGGGGSGGGGEVPLVESGGDLVKPGGSLRLSCVASGFTFSSYGMSWVRQSPGKGLQWVAGITYDGSNTYYTDTVRGRFTISRDNARNTVYLQMNSLRAEDTAVYYCVASPLYGTYGFDYWGHGTSVFVSSASTTAPSVTSGQAGQHHHHHHGAYPYDVPDYAS
notes: Canine scFv (VL-linker-VH); also called P3-29
ELISA hCD19 (ratio FMC63): 0.19 ratio to FMC63

B13: scFv 37 (scFv)
scFv: SSVLTQPPSVSVSLGQTATISCSGESLNDYYAQWFQQKAGQVPVLVIYRDTERPSGIPDRFSGSSSGNTHTLTISGARAEDEADYYCESEVSAGGAVFGEGTHLTVLGGGSSRSSSSGGGGSGGGGEVQLVETGGDLVKPGGSLRLSCVASGFTLRDYSMTWVRQTPEKGLQLVAGISTGGSTTYYIDAVKGRFTISRDNAKNTVYLQMNSLRAEDTAMYHCTTTALGYWGQGTLVTVSSASTTTPSVTSGQAGQHHHHHHGAYPYDVPDYAS
notes: Canine scFv (VL-linker-VH); also called P3-27
ELISA hCD19 (ratio FMC63): 0.1 ratio to FMC63

B14: scFv 4 (scFv)
scFv: QSVLNQPPSVSGALGQTVTISCSGSHTNIGSGFDVQWYQQLPGKSPQTIIYANINRPSGVPARFSGSKSGSTATLTITGVQAEDEADYYCQSYDDNFDYVFGSGTQLTVLGGGSSRSSSSGGGGSGGGGEEQLVEFGGDLVKPGGSLRLSCVVSGFDFSRYGMSWVRQSPGKGLQWVADISYRGTTFYADDVKGRFTVSRDSAKNTLYLEMTSLTVEDTAVYYCANSANWYVSPFDHWGQGTLVTVSSASTTAPSVTSGQAGQHHHHHHGAYPYDVPDYAS
notes: Canine scFv (VL-linker-VH); also called scFv_04; P3-06
ELISA hCD19 (ratio FMC63): 0.77 ratio to FMC63

B15: scFv 32 (scFv)
scFv: QSVLTQPASVSVSLGQTATISCSGESLSKYYAQWFQQKAGQAPVLVIYKDTERPSGIPDRFSGSSSGNTHTLTITGIQAADEADYYCQSYDDNLDGYVFGSGTQLTVLGGGSSRSSSSGGGGSGGGGEVQLVESGGDLVKPGGSLRLSCVGSGFTFSSYWMSWVRQAPGKGLQWIADISDSGSSTDYADAVKGRFTISRDNAKNTLYLQMNSLRAEDTAMYYCARGLGMDYWGHGTSLFVSSASTTAPSVTSGQAGQHHHHHHGAYPYDVPDYAS
notes: Canine scFv (VL-linker-VH); also called P4-11
ELISA hCD19 (ratio FMC63): 0.2 ratio to FMC63

B16: scFv 27 (scFv)
scFv: B15 scFv with S2P, A8P, A80E, A83G, Y86H, Q88H, D92E
notes: Canine scFv (VL-linker-VH); also called P3-18
ELISA hCD19 (ratio FMC63): 0.35 ratio to FMC63

B17: scFv 30 (scFv)
scFv: B15 scFv with A32T, T75S, I77A, A80E, L94V
notes: Canine scFv (VL-linker-VH); also called P4-02
ELISA hCD19 (ratio FMC63): 0.22 ratio to FMC63

B18: scFv 36 (scFv)
scFv: QSVLTQPTSVSGSLGQRVTISCSGSTNNIGIVGASWYQQLPGKAPKLLVYSDGDRPSGVPDRFSGSNSGNSDTLTITGLQAEDEADYYCQSFDTTLDAYVFGSGTQLTVLGGGSSRSSSSGGGGSGGGGEEQLVEFGGGLVRPGGSLRLSCVASGFTFSSYGMTWVRQSPGKGLQWVATISDTGSTYYADTVKGRFSISRDNAKNTLYLQMNSLRADDTALYYCTKDLGVWGMDNWGPGTSLFVSSASTTAPSVTSGQAGQHHHHHHGAYPYDVPDYAS
notes: Canine scFv (VL-linker-VH); also called P3-25
ELISA hCD19 (ratio FMC63): 0.6 ratio to FMC63

B19: scFv 40 (scFv)
scFv: QSVLTQPPSVSGSLGQKVTISCTGSSSSVGTHYVGWYQIPPGIGPRTVIYNNDYRPSGVPDRFSGSKSGNSATLTISGLQAEDEADYYCSSWDDSLGAYVLGSGTQLTILGGGSSRSSSSGGGGSGGGGELTLQESGPGLVKPSQTLSLTCAVSGGSVIRGYYWTWIRQRPGRGLEWMGYWAGSTDYNPAFQGRIFITAGTAKNQFSLEMTSMTTDDTAIYYCVGSLRGGWLFDNWGQGTLVTVSSASTTAPSVTSGQAGQHHHHHHGAYPYDVPDYAS
notes: Canine scFv (VL-linker-VH); also called P3-59B
ELISA hCD19 (ratio FMC63): 0.14 ratio to FMC63
